Consider 30 sequences from the supplement of paper PMC9170038.

The subject of this data set is MS2 coat protein. The data set is described as follows: apparent KD of MS2 coat protein; designed switch direction (-1 OFF switch, 1 ON switch): -1; higher = weaker reporter binding. In a few lines: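 The reported apparent KD is a per-design median over clusters, from curve fits of normalised cluster fluorescence. Protein titrations used SNAP-549-labelled MS2 coat protein, doubled from 0.7 or 1.5 nM to 3 µM, in Tris-HCl pH 7.5 buffer with KCl, MgCl2, BSA, DTT, tRNA and Tween-20, with no input, 200 uM small-molecule ligand, or an oligonucleotide input. The RNA switches were transcribed on Illumina chips by stalled E. coli RNA polymerase.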

Setting [1] is: input ligand: microRNA oligo, concentration not stated.
Where [2] appears, read: Eterna round: R95, input ligand: FMN 200 uM.
The mark [3] stands for this setting: Eterna round: R95, input ligand: microRNA oligo, concentration not stated.
Where [4] appears, read: Eterna round: R95, input ligand: none.

Turning to “GCAGCAACUCUUACUAACUAAACAUGAGGAUCACCCAUGUCUCAGGAUAUGGUCUGGAUUACAGGCCAGAAGGGAGAAAGCUGC [Eli exng3 - 038] (Eterna round: R96, puzzle: Exclusion NG 3)”, the “apparent KD of MS2 coat protein” value is, setting by setting: (input ligand: FMN 200 uM) 15.6 nM; under setting [1], 11.2 nM; (input ligand: none) 16.9 nM.

As to “GCAGCAUAGAUUACUAGCUGUUACAUGAGGAUCACCCAUGUUCAGGAUAUGGUCUGGAUUACAGGCCAGAAGGGAACAAGCUGC [finally!] (Eterna round: R96, puzzle: Exclusion NG 3)”, the “apparent KD of MS2 coat protein” value was determined as 14.2 nM (input ligand: FMN 200 uM), 12.9 nM under setting [1] and 16.6 nM (input ligand: none).

“GCAGCAUAGUGUAAUAACACAAUACAUGAGGAUCACCCAUGUGAGGAUAUGGACUGGAUUACAGUCCAGAAGGCACAAAGCUGC [Zipper Style 2] (Eterna round: R96, puzzle: Exclusion NG 3)”: the “apparent KD of MS2 coat protein” value is, setting by setting: (input ligand: FMN 200 uM) 19.9 nM; under setting [1], 13.3 nM; (input ligand: none) 21.1 nM.

For “GCAGCAUAGUUUACUAACUGUUACAUGAGGAUCACCCAUGUCUAGGAUAUGGUCUGGAUUACAGGCCAGAAGGAGAAAAGCUGC [Eli exng3 - 036] (Eterna round: R96, puzzle: Exclusion NG 3)”, the “apparent KD of MS2 coat protein” value runs as follows: (input ligand: FMN 200 uM) 15.3 nM; under setting [1], 13 nM; (input ligand: none) 16.8 nM.

On to “GCAGCAUAGUUUACUAACUGUUACAUGAGGAUCACCCAUGUUGAGGAUAUGGUCUGGAUUACAGGCCAGAAGGCGACAAGCUGC [Eli exng3 - 028] (Eterna round: R96, puzzle: Exclusion NG 3)”, for which the “apparent KD of MS2 coat protein” value worked out at 18.1 nM (input ligand: FMN 200 uM), 13 nM under setting [1] and 16.9 nM (input ligand: none).

On to “GCAGCAUAUGUAGGAUAUCUGCACGUUUAGUGCAGAGAAGGACAUGAGGAUCACCCAUGUAAUUAAGAUCAAUUAUUAAGCUGC [ENG1/4-A2] (Eterna round: R96, puzzle: Exclusion NG 1)”, for which the “apparent KD of MS2 coat protein” value was 42.5 nM (input ligand: FMN 200 uM), 17.2 nM under setting [1] and 26.2 nM (input ligand: none).

Turning to “GCAGCAUUGUUUACUAACAGUUACAUGAGGAUCACCCAUGUUCAGGAUAUGGUCUGGAUUACAGGCCAGAAGGGAACAAGCUGC [Eli exng3 - 031] (Eterna round: R96, puzzle: Exclusion NG 3)”, the “apparent KD of MS2 coat protein” value (input ligand: FMN 200 uM) was found to be 9.09 nM, the “apparent KD of MS2 coat protein” value under setting [1] is 9.39 nM and the “apparent KD of MS2 coat protein” value (input ligand: none) was found to be 15 nM.

Take “GCAGGAUAAGUCAGGAUAUACCUAUGGAUACAUAGGUAGAAGGGACAUGAGGAUCACCCAUGUGACUCACCUGC [Fiskers BMX 4 - 62] (puzzle: Brourd's mod of Exclusion 4)”: the “apparent KD of MS2 coat protein” value under setting [2] came to 95.6 nM, the “apparent KD of MS2 coat protein” value under setting [3] stood at 27.8 nM and the “apparent KD of MS2 coat protein” value under setting [4] amounted to 27 nM.

For “GCAGGAUAAGUGAGGAUAUACCUCUGGAUACAGAGGUAGAAGGCACAUGAGGAUCACCCAUGUUACUCACCUGC [Fiskers BMX 4 - 76] (puzzle: Brourd's mod of Exclusion 4)”, the “apparent KD of MS2 coat protein” value under setting [3] was 10.9 nM.

Take “GCAUGCUAUGUCAGGAUAUACCUGUGGAUACAUAGGUAGAAGGGACAUGAGGAUCACCCAUGUCCUAAUCAUGC [Fiskers BMX 4 - 24] (Eterna round: R96, puzzle: Brourd's mod of Exclusion 4)”: the “apparent KD of MS2 coat protein” value was determined as 11.6 nM (input ligand: FMN 200 uM), 10 nM under setting [1] and 13.4 nM (input ligand: none).

Turning to “GCAUGCUAUGUCAGGAUAUACCUGUGGAUACAUAGGUAGAAGGGACAUGAGGAUCACCCAUGUCCUAAUCAUGC [Fiskers BMX 4 - 24] (puzzle: Brourd's mod of Exclusion 4)”, the “apparent KD of MS2 coat protein” value under setting [3] worked out at 12.1 nM.

“GCAUGGAGACAGGAUAUCCGCGCGAACAAAAUAGGAGAAGGGUCUACAUGAGGAUCACCCAUGUGACGGUAUCC [Aedenqu] (puzzle: Exclusion 6)”: the “apparent KD of MS2 coat protein” value is, setting by setting: under setting [2], 62.2 nM; under setting [3], 21.7 nM; under setting [4], 27.2 nM.

With “GCAUGUUAUGUCAGGAUAUACCUAUGGAUACAUAGGUAGAAGGGACAUGAGGAUCACCCAUGUCCUAAUCAUGC [Fiskers BMX 4 - 23] (puzzle: Brourd's mod of Exclusion 4)”, the “apparent KD of MS2 coat protein” value under setting [3] was 12.5 nM.

“GCAUUGAGUGUGAGGAUAUGCUGGUCAUAAGAUCAGCAGAAGGCACAUGAGGAUCACCCAUGUGAAAACAAUGC [Mat - Exclusion 4 - JL Mod - D66] (puzzle: Brourd's mod of Exclusion 4)”: the “apparent KD of MS2 coat protein” value was 93.1 nM under setting [2], 14.7 nM under setting [3] and 19.2 nM under setting [4].

With “GCCAGAGCAGGAUAUUCAAUAUCACACAUGAGGAUCACCCAUGUCCGGCGAAAGCUGGAGGGAGAAGGGCUCUGGC [Fiskers Ex 5 - 14] (puzzle: Exclusion 5)”, the “apparent KD of MS2 coat protein” value under setting [3] was 49.4 nM.

“GCCAGAGCAGGAUAUUCAAUGUAUCACAUGAGGAUCACCCAUGUCCAGCGAAAGCUGGAGGGAGAAGGGCUCUGGC [Fiskers Ex 5 - 17] (puzzle: Exclusion 5)”: the “apparent KD of MS2 coat protein” value runs as follows: under setting [2], 65.6 nM; under setting [3], 234 nM; under setting [4], 257 nM.

For the sequence “GCCAGGUGAUUCGGCCAUGACAUGAGGAUCACCCAUGUAACAAUCUAGCAAGCAAACAAGGCCGUCGUGUAGGUAUU [Rigeusarla] (Eterna round: R96, puzzle: Sensor v2, turn-off variant)”, the “apparent KD of MS2 coat protein” value reads like this: (input ligand: FMN 200 uM) 78 nM; under setting [1], 61.1 nM; (input ligand: none) 76.7 nM.

For the sequence “GCCCAGUUAGGAUAUACAUGUCACGUCCUAACGGUCGAAGGACAUGAGGAUCACCCAUGUAGAAGGGACCGGCA [Onraonbe] (Eterna round: R97, puzzle: Exclusion 2)”, the “apparent KD of MS2 coat protein” value (input ligand: FMN 200 uM) turned out to be 17.7 nM and the “apparent KD of MS2 coat protein” value (input ligand: none) amounted to 21.2 nM.

For the sequence “GCCCGGGCAGGAUAUACAAGCUAGUGCUGAAAAGUGCUAGUACAUGAGGAUCACCCAUGUAGAAGGGCCCGGGC [-37.6, -35.7 kcal, A 28% 2bis] (Eterna round: R97, puzzle: Exclusion 2)”, the “apparent KD of MS2 coat protein” value is 30.5 nM (input ligand: FMN 200 uM) and 18.1 nM (input ligand: none).

Take “GCCGAAAAAGUGAGGAUAUACCUAUGGAUACAUAGGUAGAAGGCACAUGAGGAUCACCCAUGUAUCCUAACGGC [Eli bmx4 4.28] (Eterna round: R97, puzzle: Brourd's mod of Exclusion 4)”: the “apparent KD of MS2 coat protein” value runs as follows: (input ligand: FMN 200 uM) 362 nM; (input ligand: none) 29 nM.

Consider “GCCGAAAAUGAGAGGAUAUGCCUAUGGAUACGUAGGCAGAAGGCACAUGAGGAUCACCCAUGUUCCUCAACGGC [JL-BMX4-4.26 Eli mod] (Eterna round: R97, puzzle: Brourd's mod of Exclusion 4)”, for which the “apparent KD of MS2 coat protein” value came out at 19.4 nM (input ligand: FMN 200 uM) and 14.6 nM (input ligand: none).

For “GCCGAAAGUGUGAGGAUAUACCUAUGGAUACAUAGGUAGAAGGCACAUGAGGAUCACCCAUGUGUCCAAACGGC [Eli bmx4 4.23] (Eterna round: R97, puzzle: Brourd's mod of Exclusion 4)”, the “apparent KD of MS2 coat protein” value amounted to 54 nM (input ligand: FMN 200 uM) and 21.7 nM (input ligand: none).

Turning to “GCCGAUUAAGUCAGGAUAUACCUAUGGAUACAUAGGUAGAAGGGACAUGAGGAUCACCCAUGUUCCUCAGCGGC [Fiskers BMX 4 - 14] (puzzle: Brourd's mod of Exclusion 4)”, the “apparent KD of MS2 coat protein” value under setting [3] was 14.5 nM.

As to “GCCGGAUUUGUGAGGAUAUGCCUAUGGAUACAUAGGCAGAAGGCACAUGAGGAUCACCCAUGUUCCUCACCGGC [JL-BMX4-4.24 Eli mod] (Eterna round: R97, puzzle: Brourd's mod of Exclusion 4)”, the “apparent KD of MS2 coat protein” value was 232 nM (input ligand: FMN 200 uM) and 29.8 nM (input ligand: none).

Regarding “GCCGGGCGUGUAGGAUAUGGCCGGCGGUGCCGGCCAGAAGGACAUGAGGAUCACCCAUGUGCCGGCCUUGGGCCGGCGCCCGGC [-51, -48 kcal and 14% A] (Eterna round: R96, puzzle: Exclusion NG 1)”, the “apparent KD of MS2 coat protein” value came out at 14.9 nM (input ligand: FMN 200 uM), 8.09 nM under setting [1] and 13.3 nM (input ligand: none).

As to “GCCGGUCAUGUAGGAUAUGGCCGGCGGUGCCGGCCAGAAGGACAUGAGGAUCACCCAUGUGCCGGCCUUUGGCCGGCGCCCGGC (Eterna round: R96, puzzle: Exclusion NG 1)”, the “apparent KD of MS2 coat protein” value is, setting by setting: (input ligand: FMN 200 uM) 8.65 nM; under setting [1], 11.2 nM; (input ligand: none) 18.6 nM.

Consider “GCCGUGCAAGGAUAUCGCGGAAAGAACAUGAGGAUCACCCAUGUGAUCACCUUCUAAAUGCGAGAAGGUGCUAAAA [Axebied] (puzzle: Exclusion 5)”, for which the “apparent KD of MS2 coat protein” value turned out to be 75.7 nM under setting [2], 56 nM under setting [3] and 81.4 nM under setting [4].

On to “GCCUCACAUGAGGAUCACCCAUGUCAGGAUAUAGGAGACGGCAGAAAUCCUGCCAUCGCUAGAAGGGACUGGCA [Tirebi] (Eterna round: R96, puzzle: Exclusion 1)”, for which the “apparent KD of MS2 coat protein” value reads like this: (input ligand: FMN 200 uM) 138 nM; under setting [1], 50.6 nM; (input ligand: none) 67 nM.

Regarding “GCCUCACAUGAGGAUCACCCAUGUCAGGAUAUAGGAGACGGUAGCUUUGCUGCCAUCGCUAGAAGGGACUGGCU (puzzle: Exclusion 1)”, under setting [3], the “apparent KD of MS2 coat protein” value amounted to 65.6 nM.

“GCCUCACUUGAGGAUCACCCAAGUCAGGAUAUCUACAAGCCGGCCAUGCCAGCUUGCAAGAGAAGGGACUCUAA [Diazale] (Eterna round: R97, puzzle: Exclusion 1)”: the “apparent KD of MS2 coat protein” value worked out at 205 nM (input ligand: FMN 200 uM) and 31.6 nM (input ligand: none).
